Experimental data as given in the supplement of paper PMC10567573.

B1: S100A14 (parent)
chain: KIANLGSCNDSKLEFRSFWELIGE

Variants of: B1
Assay: protein stability index of a GFP-peptide fusion (GPS, HEK-293T) (PSI 1-6); higher = more stable
Settings: c terminus: a fixed tail appended
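Also: lentivirally expressed fusions sorted by FACS into six bins by GFP to DsRed ratio, PSI derived from sequencing read proportions per bin multiplied by bin number.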

Protein stability index, by site and new letter:
F15: W 2.75; Y 1.63; R 2.7; I 2.24; L 1.06; S 2.04; Q 2.25; H 2.14; G 1.92; P 2.42; M 2.25; N 2.22; A 2.06; T 2.1; C 1.75; D 2.51; V 2.56; K 1.88; E 2.65
N9: T 1.56; K 2.23; Y 1.91; S 1.08; F 1.86; E 2.19; I 1.69; M 1.97; Q 1.77; C 1.75; D 1.59; W 1.83; R 1.47; H 1.8; P 1.98; G 2.22; A 2.06; V 2.01
K12: N 2.29; E 3.21; I 1.8; C 2.01; F 2.76; P 1.95; Q 1.26; Y 3; R 2.56; L 1.72; T 3; W 2.47; A 2.02; S 1.96; M 2.21; H 2.35; G 1.59; V 2.47; D 2.24
E20: I 2.29; A 1.64; H 2.15; R 2.45; G 1.4; T 1.59; M 3.34; Y 2.73; C 2.79; Q 1.62; N 2.29; S 1.94; D 2.56; V 1.73; F 2.77; L 2.77; P 1.64; K 2.22
S7: H 2.25; V 2.58; F 2.13; I 1.89; N 2.32; Y 1.83; P 2.5; M 1.62; K 1.44; E 1.87; G 1.62; Q 1.68; T 1.71; D 1.96; A 1.51; W 1.89; C 2.09; L 1.79; R 2.03
F18: D 3.52; L 2.57; K 2.07; Q 1.98; H 2.82; Y 1.97; W 2.16; C 2.11; G 2.43; E 2.66; T 1.89; M 1.63; V 1.52; R 2.5; I 1.85; S 2.08; A 2.2; P 2.27; N 2.73
I22: K 2.32; Y 2; E 3.19; M 1.82; D 2.65; P 2.29; W 1.67; C 1.9; A 2.59; R 1.98; H 1.9; L 1.94; G 2.32; F 2.95; N 2.61; Q 2.24; S 2.28; T 2.25; V 1.79
G6: T 1.63; P 1.67; R 1.92; M 2.51; W 2.21; L 3.46; A 2.11; Q 1.95; S 2.1; Y 1.85; E 2.06; C 2.45; K 3.01; I 1.75; H 1.5; N 2.94; V 2.51; D 1.61
G23: Q 2.19; S 1.87; A 1.89; L 1.62; E 2.15; M 2.25; R 1.45; T 2.28; D 1.75; P 2.04; I 1.86; H 2.29; F 1.44; N 2.21; C 1.73; K 1.82
C8: G 2.24; I 3.2; W 1.12; E 1.97; P 1.79; V 2.08; Q 1.68; R 2.07; F 1.56; T 1.76; K 1.55; L 1.49; H 1.22; S 1.99; D 2.63; N 1.68; M 1.51; A 1.77
D10: P 1.64; Q 1.7; W 3.28; C 1.95; T 1.95; F 1.92; S 2.4; Y 1.63; G 2.84; R 1.74; L 2.55; A 1.66; N 2.39; K 1.98; H 2.31; I 1.72; E 2.21; V 2.32; M 2.85
E14: K 1.47; M 2.13; L 2.08; S 1.8; P 1.61; F 1.89; R 2.7; Q 2.06; I 2.54; A 1.81; H 1.71; D 1.89; W 1.08; C 1.48; V 1.6; N 1.54; Y 2.01; T 1.43; G 1.57
R16: Q 1.98; S 2.65; H 2.77; N 2.13; W 2.25; K 1.36; P 2.28; T 1.61; V 2.3; G 1.54; C 1.66; D 2.11; F 1.42; A 1.28; Y 2.44; M 1.78; E 1.92; L 3.03; I 1.97
S17: R 1.34; M 1.29; Y 1.84; H 1.46; Q 2.75; P 1.65; A 3.38; G 1.33; N 1.5; F 2.52; E 1.87; I 2.45; W 2.28; T 2.75; C 2.16; D 1.95; K 2.2; L 2.86
S11: V 2.42; I 1.75; K 1.69; F 2.39; R 2; Q 2.08; Y 1.59; H 1.62; E 1.68; T 1.56; D 1.89; L 1.52; N 2.21; C 2.62; G 1.53; M 1.4; W 1.18; P 2.81; A 2.38
W19: D 3.58; M 1.79; T 2.29; Q 1.73; V 3.86; K 2.11; H 2.74; G 2.68; S 1.87; I 1.97; A 1.89; R 2.09; N 2.71; F 2.03; Y 1.78; E 3.25; P 3.25; L 1.56; C 1.46
L13: D 2.17; P 2.5; Y 2.12; Q 1.92; T 2.24; H 2.12; V 1.83; C 1.21; G 2.18; N 1.88; K 2.04; F 2.21; E 1.71; S 2.52; I 2.13; A 2.17; W 2.31; R 1.5; M 2.03
L21: R 1.94; D 2.57; P 2.59; N 2.55; I 1.54; S 1.86; K 1.86; W 1.18; Q 1.76; H 1.9; A 2.74; F 2.16; E 2.08; G 2.33; C 1.62; V 1.63; T 2; Y 2.23; M 1.23
